From patent US20250161440A1 (ABCENTRA, published 2025)

Target: oxidized LDL (oxLDL) (UniProt P04114 28-4563, limits assumed, oxidized); the kind of oxidation used in the in vitro assay is not stated (the filing says in general that oxidized LDL may carry malondialdehyde groups on lysines and histidines, or be oxidized by …)
Assay: cell-based or functional assay

Sequence of oxidized LDL (oxLDL) (P04114 28-4563 limits assumed): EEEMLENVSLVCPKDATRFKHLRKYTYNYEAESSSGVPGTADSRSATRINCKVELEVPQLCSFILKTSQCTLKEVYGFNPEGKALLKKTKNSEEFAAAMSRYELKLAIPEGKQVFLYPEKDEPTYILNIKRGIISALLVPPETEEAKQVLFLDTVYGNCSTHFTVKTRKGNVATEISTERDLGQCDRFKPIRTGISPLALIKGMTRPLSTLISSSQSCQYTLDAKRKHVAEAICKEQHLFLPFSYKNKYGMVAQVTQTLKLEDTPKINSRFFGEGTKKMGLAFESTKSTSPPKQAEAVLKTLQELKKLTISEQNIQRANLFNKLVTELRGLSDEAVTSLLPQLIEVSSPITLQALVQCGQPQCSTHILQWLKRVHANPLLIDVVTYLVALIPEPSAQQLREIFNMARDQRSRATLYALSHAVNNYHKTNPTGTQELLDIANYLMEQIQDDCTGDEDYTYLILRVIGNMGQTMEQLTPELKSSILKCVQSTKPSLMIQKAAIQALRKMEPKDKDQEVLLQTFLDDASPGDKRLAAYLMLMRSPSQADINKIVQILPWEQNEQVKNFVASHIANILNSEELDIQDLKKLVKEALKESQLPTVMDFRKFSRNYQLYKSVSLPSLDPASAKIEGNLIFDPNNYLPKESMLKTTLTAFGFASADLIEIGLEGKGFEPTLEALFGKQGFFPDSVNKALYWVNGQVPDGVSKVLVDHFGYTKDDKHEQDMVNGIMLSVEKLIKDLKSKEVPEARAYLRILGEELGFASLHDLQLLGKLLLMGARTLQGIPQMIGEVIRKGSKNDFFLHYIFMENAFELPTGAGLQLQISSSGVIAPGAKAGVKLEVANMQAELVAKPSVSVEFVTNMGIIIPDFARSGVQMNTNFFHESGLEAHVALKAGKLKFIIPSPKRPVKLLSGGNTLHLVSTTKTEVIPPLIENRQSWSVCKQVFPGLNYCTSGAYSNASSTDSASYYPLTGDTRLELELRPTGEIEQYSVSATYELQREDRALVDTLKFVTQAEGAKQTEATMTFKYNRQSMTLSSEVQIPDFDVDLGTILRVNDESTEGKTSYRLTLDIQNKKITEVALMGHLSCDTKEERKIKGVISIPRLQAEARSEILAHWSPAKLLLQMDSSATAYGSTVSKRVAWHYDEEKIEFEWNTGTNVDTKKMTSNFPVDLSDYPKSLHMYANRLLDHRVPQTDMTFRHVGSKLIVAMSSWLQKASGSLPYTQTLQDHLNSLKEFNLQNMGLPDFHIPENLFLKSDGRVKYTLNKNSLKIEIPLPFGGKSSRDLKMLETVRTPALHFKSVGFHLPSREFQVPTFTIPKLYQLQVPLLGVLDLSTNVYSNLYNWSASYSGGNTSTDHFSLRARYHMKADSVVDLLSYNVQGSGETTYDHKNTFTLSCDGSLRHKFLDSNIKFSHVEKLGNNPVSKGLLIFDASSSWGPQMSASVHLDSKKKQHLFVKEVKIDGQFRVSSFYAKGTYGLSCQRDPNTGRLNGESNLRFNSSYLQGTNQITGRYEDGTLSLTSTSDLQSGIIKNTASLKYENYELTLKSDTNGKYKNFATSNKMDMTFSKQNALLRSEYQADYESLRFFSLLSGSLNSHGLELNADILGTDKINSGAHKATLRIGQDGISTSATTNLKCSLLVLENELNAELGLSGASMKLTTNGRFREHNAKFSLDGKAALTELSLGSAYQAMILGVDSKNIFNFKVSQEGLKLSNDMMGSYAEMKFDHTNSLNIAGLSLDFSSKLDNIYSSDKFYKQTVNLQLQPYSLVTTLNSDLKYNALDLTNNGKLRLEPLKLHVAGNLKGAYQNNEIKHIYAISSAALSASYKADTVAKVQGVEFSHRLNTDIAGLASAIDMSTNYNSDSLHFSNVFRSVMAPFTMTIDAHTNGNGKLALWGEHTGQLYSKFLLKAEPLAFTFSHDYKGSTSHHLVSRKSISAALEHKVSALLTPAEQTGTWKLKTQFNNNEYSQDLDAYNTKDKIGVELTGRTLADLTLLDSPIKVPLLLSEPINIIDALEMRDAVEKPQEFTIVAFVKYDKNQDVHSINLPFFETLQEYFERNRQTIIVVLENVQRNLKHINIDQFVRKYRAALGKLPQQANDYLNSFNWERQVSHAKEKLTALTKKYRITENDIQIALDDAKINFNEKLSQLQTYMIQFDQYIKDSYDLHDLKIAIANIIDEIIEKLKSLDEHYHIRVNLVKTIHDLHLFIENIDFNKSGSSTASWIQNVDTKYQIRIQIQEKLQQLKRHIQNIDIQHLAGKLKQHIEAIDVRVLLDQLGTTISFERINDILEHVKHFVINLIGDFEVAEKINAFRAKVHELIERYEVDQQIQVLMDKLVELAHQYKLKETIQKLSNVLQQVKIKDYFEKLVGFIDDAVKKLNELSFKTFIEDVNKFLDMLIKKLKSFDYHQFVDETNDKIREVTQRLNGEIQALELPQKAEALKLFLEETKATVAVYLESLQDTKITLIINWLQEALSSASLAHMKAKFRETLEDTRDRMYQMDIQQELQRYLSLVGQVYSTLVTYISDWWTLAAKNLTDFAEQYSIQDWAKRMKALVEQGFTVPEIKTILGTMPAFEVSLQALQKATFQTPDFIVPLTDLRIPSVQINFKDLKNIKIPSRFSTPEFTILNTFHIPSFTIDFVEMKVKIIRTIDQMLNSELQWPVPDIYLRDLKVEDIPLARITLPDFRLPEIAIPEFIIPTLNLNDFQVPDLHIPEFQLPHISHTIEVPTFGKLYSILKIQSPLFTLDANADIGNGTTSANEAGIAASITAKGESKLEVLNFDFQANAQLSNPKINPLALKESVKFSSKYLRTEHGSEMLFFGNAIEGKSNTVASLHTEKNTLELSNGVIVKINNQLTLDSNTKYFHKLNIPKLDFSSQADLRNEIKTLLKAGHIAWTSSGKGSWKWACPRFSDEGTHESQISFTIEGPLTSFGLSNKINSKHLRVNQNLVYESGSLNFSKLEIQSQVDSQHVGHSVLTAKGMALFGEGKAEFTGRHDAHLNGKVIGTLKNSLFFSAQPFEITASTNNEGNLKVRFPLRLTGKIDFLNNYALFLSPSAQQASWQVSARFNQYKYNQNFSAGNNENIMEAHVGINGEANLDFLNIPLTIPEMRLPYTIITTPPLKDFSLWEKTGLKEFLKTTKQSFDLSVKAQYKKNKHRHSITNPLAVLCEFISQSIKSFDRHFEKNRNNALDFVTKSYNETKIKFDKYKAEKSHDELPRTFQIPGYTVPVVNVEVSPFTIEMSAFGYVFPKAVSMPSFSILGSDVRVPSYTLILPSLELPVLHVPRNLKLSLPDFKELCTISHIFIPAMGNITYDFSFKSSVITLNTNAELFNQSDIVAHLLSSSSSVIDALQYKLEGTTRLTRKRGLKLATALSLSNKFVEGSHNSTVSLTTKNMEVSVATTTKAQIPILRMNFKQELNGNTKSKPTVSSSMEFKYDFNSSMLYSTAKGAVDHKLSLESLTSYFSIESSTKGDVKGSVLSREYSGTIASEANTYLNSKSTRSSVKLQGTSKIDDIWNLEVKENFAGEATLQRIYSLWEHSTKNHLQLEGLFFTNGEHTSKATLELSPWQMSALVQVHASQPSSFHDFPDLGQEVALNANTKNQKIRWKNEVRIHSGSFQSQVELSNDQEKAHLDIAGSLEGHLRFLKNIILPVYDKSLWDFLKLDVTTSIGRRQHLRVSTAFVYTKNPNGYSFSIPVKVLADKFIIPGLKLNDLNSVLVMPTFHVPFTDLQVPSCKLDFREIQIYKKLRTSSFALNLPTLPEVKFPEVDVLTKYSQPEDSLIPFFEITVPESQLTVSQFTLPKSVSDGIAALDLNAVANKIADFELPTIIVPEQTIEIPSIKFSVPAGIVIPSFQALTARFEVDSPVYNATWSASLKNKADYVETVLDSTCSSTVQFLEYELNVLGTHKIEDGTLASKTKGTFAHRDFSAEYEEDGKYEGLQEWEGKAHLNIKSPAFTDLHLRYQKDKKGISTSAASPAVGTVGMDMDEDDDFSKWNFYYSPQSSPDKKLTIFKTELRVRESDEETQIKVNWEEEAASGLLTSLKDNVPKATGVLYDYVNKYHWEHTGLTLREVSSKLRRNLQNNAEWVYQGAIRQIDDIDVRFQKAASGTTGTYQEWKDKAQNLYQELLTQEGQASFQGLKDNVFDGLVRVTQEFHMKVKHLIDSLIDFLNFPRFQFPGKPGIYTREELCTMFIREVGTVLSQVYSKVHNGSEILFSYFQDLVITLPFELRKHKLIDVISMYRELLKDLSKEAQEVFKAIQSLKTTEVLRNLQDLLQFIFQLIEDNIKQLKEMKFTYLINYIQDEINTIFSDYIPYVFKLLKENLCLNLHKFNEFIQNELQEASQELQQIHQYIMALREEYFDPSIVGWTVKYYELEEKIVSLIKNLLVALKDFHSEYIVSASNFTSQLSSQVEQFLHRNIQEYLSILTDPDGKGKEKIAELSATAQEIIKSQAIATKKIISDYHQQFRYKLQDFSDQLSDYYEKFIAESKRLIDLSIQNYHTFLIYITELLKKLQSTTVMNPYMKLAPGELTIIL

B1: orticumab (antibody, human IgG1, lambda, V domains shown)
VH: EVQLLESGGGLVQPGGSLRLSCAASGFTFSNAWMSWVRQAPGKGLEWVSSISVGGHRTYYADSVKGRSTISRDNSKNTLYLQMNSLRAEDTAVYYCARIRVGPSGGAFDYWGQGTLVTVSS
VL: QSVLTQPPSASGTPGQRVTISCSGSNTNIGKNYVSWYQQLPGTAPKLLIYANSNRPSGVPDRFSGSKSGTSASLAISGLRSEDEADYYCASWDASLNGWVFGGGTKLTVLG
  IC50 for MCP-1 inhibition: ~10 nM
